In general, stoichiometry N refers to a count of units in the complex or per binding partner.

Results on 1 protein are retold here after article PMC3232166, “Seleno-detergent MAD phasing of leukotriene C4 synthase in complex with dodecyl-β-D-selenomaltoside” (Acta Crystallographica Section F, 2011).

The series deals with the molecule itself. Briefly: crystal structure; LTC4S with SeDDM and GSH, sitting-drop vapour diffusion at 293 K, 0.1 M MES-NaOH pH 6.5, 1.6 M ammonium sulfate, 0.4 M MgCl2; space group F23, Se MAD phasing, refined at 3.2 A.

B1: Human leukotriene C4 synthase (enzyme)
chain: MKDEVALLAAVTLLGVLLQAYFSLQVISARRAFRVSPPLTTGPPEFERVYRAQVNCSEYFPLFLATLWVAGIFFHEGAAALCGLVYLFARLRYFQGYARSAQLRLAPLYASARALWLLVALAALGLLAHFLPAALRAALLGRLRTLLPWA
notes: Leukotriene C4 synthase, human; 17 kDa monomer; construct as described previously (Ago et al., 2007; Saino et al., 2011); also called LTC4S
Turning to B1, the “stoichiometry N” value is 3.
